Measured values from patent publication US20260265379A1 (IMCHECK THERAPEUTICS, published 2026).

B1: bsAb048 (bispecific antibody)
heavy 1: EIVLTQSPGTLSLSPGERATLSCRASQRVSSSYLAWYQQKPGQAPRLLIYDASSRATGIPDRFSGSGSGTDFTLTISRLEPEDFAVYYCQQYGSLPWTFGQGTKVEIKGGGGSGGGGSGGGGSGGGGSEVQLVESGGGLVQPGGSLRLSCAASGFTFSRYWMSWVRQAPGKGLEWVANIKQDGSEKYYVDSVKGRFTISRDNAKNSLYLQMNSLRAEDTAVYYCAREGGWFGELAFDYWGQGTLVTVSSGGGGSGGGGSGGGGSGGGGSQVQLVQSGAEVKKPGASVKLSCKASGYIFTRYYMYWVKQRPGQGLEWIGEINPNNGGTKFNEKFKNRATLTVDKSISTAYMELSRLRSDDTAVYYCSREDDYDGTPFAMDYWGQGTLVTVSS
heavy 2: QVQLVQSGAEVKKPGASVKLSCKASGYIFTRYYMYWVKQRPGQGLEWIGEINPNNGGTKFNEKFKNRATLTVDKSISTAYMELSRLRSDDTAVYYCSREDDYDGTPFAMDYWGQGTLVTVSS
light: not shown
notes: IgG anti-BTN3A, one scFv anti-PD-L1; not shown: IgG1 CH1-hinge-CH2-CH3
B2: bsAb050 (bispecific antibody)
heavy 1: EVQLVESGGGLVQPGGSLRLSCAASGFTFSRYWMSWVRQAPGKGLEWVANIKQDGSEKYYVDSVKGRFTISRDNAKNSLYLQMNSLRAEDTAVYYCAREGGWFGELAFDYWGQGTLVTVSSGGGGSGGGGSGGGGSGGGGSEIVLTQSPGTLSLSPGERATLSCRASQRVSSSYLAWYQQKPGQAPRLLIYDASSRATGIPDRFSGSGSGTDFTLTISRLEPEDFAVYYCQQYGSLPWTFGQGTKVEIKGGGGSGGGGSGGGGSGGGGSQVQLVQSGAEVKKPGASVKLSCKASGYIFTRYYMYWVKQRPGQGLEWIGEINPNNGGTKFNEKFKNRATLTVDKSISTAYMELSRLRSDDTAVYYCSREDDYDGTPFAMDYWGQGTLVTVSS
heavy 2: B1 heavy 2
light: not shown
notes: as for B1
B3: bsAb037 (bispecific antibody)
heavy 1: QVQLVQSGVEVKKPGASVKVSCKASGYTFTNYYMYWVRQAPGQGLEWMGGINPSNGGTNFNEKFKNRVTLTTDSSTTTAYMELKSLQFDDTAVYYCARRDYRFDMGFDYWGQGTTVTVSS
heavy 2: DIQMTQSPSSLSASVGDRVTITCHASQNINVWLSWYQQKPGKAPKLLIYKASNLHTGVPSRFTGSGSGTDFTFTISSLQPEDIATYYCQQGQTYPYTFGQGTKLEIKGGGGSGGGGSGGGGSGGGGSQVQLVQSGAEVKKPGASVKLSCKASGYIFTRYYMYWVKQRPGQGLEWIGEINPNNGGTKFNEKFKNRATLTVDKSISTAYMELSRLRSDDTAVYYCSREDDYDGTPFAMDYWGQGTLVTVSSGGGGSGGGGSGGGGSGGGGS
light: EIVLTQSPATLSLSPGERATLSCRASKGVSTSGYSYLHWYQQKPGQAPRLLIYLASYLESGVPARFSGSGSGTDFTLTISSLEPEDFAVYYCQHSRDLPLTFGGGTKVEIKRTVAAPSVFIFPPSDEQLKSGTASVVCLLNNFYPREAKVQWKVDNALQSGNSQESVTEQDSKDSTYSLSSTLTLSKADYEKHKVYACEVTHQGLSSPVTKSFNRGECGGGGSGGGGSGGGGSGGGGSQVQLVQSGAEVKKPGASVKLSCKASGYIFTRYYMYWVKQRPGQGLEWIGEINPNNGGTKFNEKFKNRATLTVDKSISTAYMELSRLRSDDTAVYYCSREDDYDGTPFAMDYWGQGTLVTVSSGGGGSGGGGSGGGGSGGGGSDIQMTQSPSSLSASVGDRVTITCHASQNINVWLSWYQQKPGKAPKLLIYKASNLHTGVPSRFTGSGSGTDFTFTISSLQPEDIATYYCQQGQTYPYTFGQGTKLEIK
notes: one Fab arm anti-PD-1, two scFv anti-BTN3A; not shown: IgG1 CH1-hinge-CH2-CH3; CH2-CH3 (Fc)
B4: bsAb021 (bispecific antibody)
heavy: QVQLVQSGAEVKKPGASVKLSCKASGYIFTRYYMYWVKQRPGQGLEWIGEINPNNGGTKFNEKFKNRATLTVDKSISTAYMELSRLRSDDTAVYYCSREDDYDGTPFAMDYWGQGTLVTVSSGGGGSGGGGSGGGGSGGGGSDIQMTQSPSSLSASVGDRVTITCHASQNINVWLSWYQQKPGKAPKLLIYKASNLHTGVPSRFTGSGSGTDFTFTISSLQPEDIATYYCQQGQTYPYTFGQGTKLEIKGGGGSGGGGSGGGGSGGGGSQVQLVQSGVEVKKPGASVKVSCKASGYTFTNYYMYWVRQAPGQGLEWMGGINPSNGGTNFNEKFKNRVTLTTDSSTTTAYMELKSLQFDDTAVYYCARRDYRFDMGFDYWGQGTTVTVSSASTKGPSVFPLAPSSKSTSGGTAALGCLVKDYFPEPVTVSWNSGALTSGVHTFPAVLQSSGLYSLSSVVTVPSSSLGTQTYICNVNHKPSNTKVDKRVEPKSCDKTHTCPPCPAPEFEGGPSVFLFPPKPKDTLMISRTPEVTCVVVDVSHEDPEVKFNWYVDGVEVHNAKTKPREEQYNSTYRVVSVLTVLHQDWLNGKEYKCKVSNKALPASIEKTISKAKGQPREPQVYTLPPSREEMTKNQVSLTCLVKGFYPSDIAVEWESNGQPENNYKTTPPVLDSDGSFFLYSKLTVDKSRWQQGNVFSCSVMHEALHNHYTQKSLSLSPG
light: EIVLTQSPATLSLSPGERATLSCRASKGVSTSGYSYLHWYQQKPGQAPRLLIYLASYLESGVPARFSGSGSGTDFTLTISSLEPEDFAVYYCQHSRDLPLTFGGGTKVEIKRTVAAPSVFIFPPSDEQLKSGTASVVCLLNNFYPREAKVQWKVDNALQSGNSQESVTEQDSKDSTYSLSSTLTLSKADYEKHKVYACEVTHQGLSSPVTKSFNRGEC
notes: IgG anti-PD-1, scFv anti-BTN3A
B5: bsAb034 (bispecific antibody)
heavy (part 1 of 2): B3 heavy 1
heavy (part 2 of 2): GGGGSGGGGSGGGGSGGGGSQVQLVQSGAEVKKPGASVKLSCKASGYIFTRYYMYWVKQRPGQGLEWIGEINPNNGGTKFNEKFKNRATLTVDKSISTAYMELSRLRSDDTAVYYCSREDDYDGTPFAMDYWGQGTLVTVSSGGGGSGGGGSGGGGSGGGGSDIQMTQSPSSLSASVGDRVTITCHASQNINVWLSWYQQKPGKAPKLLIYKASNLHTGVPSRFTGSGSGTDFTFTISSLQPEDIATYYCQQGQTYPYTFGQGTKLEIK
heavy: B5 heavy (part 2 of 2)
light: B4 light
notes: as for B3

What follows are binders tested against T1, recombinant human BTN3A1 (human, UniProt O00481 30-254) (assay: SPR).
T1 construct: Soluble form of the antigen used in SPR; also called rhBTN3A1; recombinant BTN3A1 protein
T1 sequence (O00481 30-254 limits assumed): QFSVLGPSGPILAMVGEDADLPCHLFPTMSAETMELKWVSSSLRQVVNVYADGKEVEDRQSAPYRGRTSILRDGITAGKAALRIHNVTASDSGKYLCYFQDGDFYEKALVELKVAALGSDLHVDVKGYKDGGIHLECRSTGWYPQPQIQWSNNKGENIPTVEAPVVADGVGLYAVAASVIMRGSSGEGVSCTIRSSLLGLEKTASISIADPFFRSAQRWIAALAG
Description: (§1) SPR measures the interactions between two or more biomolecules. In capture kinetics analysis, an antibody is immobilized onto a gold-plated prism. The immobilized antibody is referred to as the ligand. An injection of antigen, referred to as the analyte, is carried out, often as a concentration series. The captured analytes are removed from the sensor chip surface using a regenerating agent, for example a low pH or high ionic strength solution. If investigating binding to several analytes, the antibodies are recaptured from solution before each analyte titration series. The instrument records the changes in refractive indexes (due to the accumulation or depletion of mass) in time and plots the results as sensorgrams.
(§2) Affinity measurements with respect to BTN3A, PD-1 and PD-L1 were performed by SPR technology, for instance in a Carterra LSA Platform instrument using a soluble form of the antigen as the analyte and the antibody as the ligand. Binding was also assessed through in cellulo binding assays, on cell lines (e.g. HEK293T cells) genetically modified to express the targets of interest or genetically modified to extinct target expression.
(§3) The 69 produced bsAbs and control mAbs were also evaluated for their binding affinity to recombinant proteins by SPR assays. The equilibrium dissociation constant (KD) was then calculated for constructs showing detectable binding.
With B1 the Kd was 0.08 nM.
In the case of B2, the Kd is reported as 0.08 nM.
B3 showed a Kd of 0.086 nM.
Work on B4 yielded a Kd of 0.068 nM.
B5 gave a Kd of 0.167 nM.

These binders were tested against T2, recombinant human PD-1 (human, UniProt Q15116 25-167, limits assumed) (assay: SPR).
T2 construct: Soluble antigen in SPR; also called rhPD-1
T2 sequence (Q15116 25-167 limits assumed): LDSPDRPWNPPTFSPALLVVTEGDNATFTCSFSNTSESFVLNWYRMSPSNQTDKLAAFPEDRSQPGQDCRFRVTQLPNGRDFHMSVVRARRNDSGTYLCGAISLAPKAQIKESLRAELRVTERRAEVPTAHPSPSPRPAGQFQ
Description: as §1, §2, §3
In the case of B3, the Kd is reported as 1.1 nM.
Binder B4 has a Kd of 1.5 nM.
With B5 the Kd was 1.9 nM.

What follows are binders tested against T3, PD-L1 at the surface of transduced cells (UniProt Q9NZQ7 19-290, limits assumed) (assay: cell-based or functional assay).
T3 sequence (Q9NZQ7 19-290 limits assumed): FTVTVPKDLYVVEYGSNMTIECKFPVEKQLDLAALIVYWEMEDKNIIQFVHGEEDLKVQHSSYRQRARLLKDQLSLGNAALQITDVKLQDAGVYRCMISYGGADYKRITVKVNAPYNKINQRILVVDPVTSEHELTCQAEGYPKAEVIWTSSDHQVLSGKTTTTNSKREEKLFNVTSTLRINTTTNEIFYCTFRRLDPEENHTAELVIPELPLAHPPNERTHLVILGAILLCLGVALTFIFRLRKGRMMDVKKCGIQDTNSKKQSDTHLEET
For B1, the “Jurkat-PD-1 activation at 10 nM” value was 7.4 fold-change to medium and the “Jurkat-PD-1 activation at 100 nM” value was 8.9 fold-change to medium.
In the case of B2, the “Jurkat-PD-1 activation at 10 nM” value is reported as 6.9 fold-change to medium and the “Jurkat-PD-1 activation at 100 nM” value is reported as 7.8 fold-change to medium.

The binders below were run against T3, PD-L1 at the surface of transduced cells (assay: flow cytometry, CHO-PD-L1 cells).
With B1 the “MFI at 10 nM” value was 1.18e+06 MFI and the “MFI at 100 nM” value was 1.36e+06 MFI.
In the case of B2, the “MFI at 10 nM” value is reported as 1.18e+06 MFI and the “MFI at 100 nM” value is reported as 1.32e+06 MFI.

What follows are binders tested against T4, BTN3A1 at the surface of HEK-BTN3A1 cells (human, UniProt O00481 30-513) (assay: flow cytometry, HEK-BTN3A1 cells).
T4 construct: HEK 293T BTN2A/BTN3A KO cells transduced with a BTN3A1 expressing vector
T4 sequence (O00481 30-513 limits assumed): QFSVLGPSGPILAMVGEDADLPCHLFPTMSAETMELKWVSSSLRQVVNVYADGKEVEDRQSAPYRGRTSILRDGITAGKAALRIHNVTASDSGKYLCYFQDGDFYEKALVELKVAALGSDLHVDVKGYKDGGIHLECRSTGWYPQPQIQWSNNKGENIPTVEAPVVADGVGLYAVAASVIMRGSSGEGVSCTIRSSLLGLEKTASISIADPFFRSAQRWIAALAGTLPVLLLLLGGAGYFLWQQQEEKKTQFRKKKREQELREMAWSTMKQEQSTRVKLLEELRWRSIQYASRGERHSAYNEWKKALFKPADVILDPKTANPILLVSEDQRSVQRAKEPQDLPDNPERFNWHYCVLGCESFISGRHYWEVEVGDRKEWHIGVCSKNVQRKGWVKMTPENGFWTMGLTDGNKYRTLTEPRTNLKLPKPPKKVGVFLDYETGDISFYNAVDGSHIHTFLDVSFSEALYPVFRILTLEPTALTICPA
With B1 the “MFI at 10 nM” value was 592000 MFI and the “MFI at 100 nM” value was 1.02e+06 MFI.
With B2 the “MFI at 10 nM” value was 535000 MFI and the “MFI at 100 nM” value was 1.2e+06 MFI.
In the case of B3, the “MFI at 10 nM” value is reported as 585000 MFI and the “MFI at 100 nM” value is reported as 1.25e+06 MFI.
In the case of B4, the “MFI at 10 nM” value is reported as 816000 MFI and the “MFI at 100 nM” value is reported as 944000 MFI.
B5 was tested, and the “MFI at 10 nM” value was 706000 MFI and the “MFI at 100 nM” value was 1.24e+06 MFI.

What follows are binders tested against T5, PD-1 at the surface of Jurkat-PD-1 cells (human, UniProt Q15116 25-288) (assay: flow cytometry, Jurkat-PD-1 cells).
T5 construct: whole, on cells
T5 sequence (Q15116 25-288): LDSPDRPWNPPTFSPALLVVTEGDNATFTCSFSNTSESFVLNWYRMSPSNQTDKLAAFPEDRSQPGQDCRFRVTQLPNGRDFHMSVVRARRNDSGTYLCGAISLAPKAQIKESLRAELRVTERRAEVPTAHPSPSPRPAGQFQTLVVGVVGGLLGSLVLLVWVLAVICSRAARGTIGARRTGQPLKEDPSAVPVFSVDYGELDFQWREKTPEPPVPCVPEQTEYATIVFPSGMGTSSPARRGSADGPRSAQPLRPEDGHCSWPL
With B3 the “MFI at 10 nM” value was 238000 MFI and the “MFI at 100 nM” value was 270000 MFI.
For B4, the “MFI at 10 nM” value was 186000 MFI and the “MFI at 100 nM” value was 275000 MFI.
B5 was tested, and the “MFI at 10 nM” value was 210000 MFI and the “MFI at 100 nM” value was 381000 MFI.
